Patent US20240269315A1, “DRUG CONJUGATE AND USE THEREOF” (priority 2021, published 2024)

Target: T1, Trop2 (UniProt P09758 27-323, limits assumed)
T1 sequence (looked up): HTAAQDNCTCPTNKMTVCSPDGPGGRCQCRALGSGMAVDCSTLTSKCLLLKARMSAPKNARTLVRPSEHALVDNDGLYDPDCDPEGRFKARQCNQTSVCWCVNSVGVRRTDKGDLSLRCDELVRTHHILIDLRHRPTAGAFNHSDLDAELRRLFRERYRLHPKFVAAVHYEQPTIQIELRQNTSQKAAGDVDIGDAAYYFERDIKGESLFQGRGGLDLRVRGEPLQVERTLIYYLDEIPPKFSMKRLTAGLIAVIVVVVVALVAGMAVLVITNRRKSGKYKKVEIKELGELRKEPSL
Assay: cell-based or functional assay

B1: ADC4 (antibody, human IgG1, kappa, V domains shown)
VH: QVQLQQSGSELKKPGASVKVSCKASGYTFTNYGMNWVKQAPGQGLKWMGWINTYTGEPTYTDDFKGRFAFSLDTSVSTAYLQISSLKADDTAVYFCARGGFGSSYWYFDVWGQGTLVTVSS
VL: DIQLTQSPSSLSASVGDRVSITCKASQDVSIAVAWYQQKPGKAPKLLIYSASYRYTGVPDRFSGSGSGTDFTLTISSLQPEDFAVYYCQQHYITPLTFGAGTKVEIKR
modifications: CB07-Exatecan on cysteine thiols after TCEP reduction; positions not given; DAR (p) 4.2 per antibody
  EC50 (ng/mL), growth inhibition of Trop2 positive MDA-MB-453 cells (CCK-8, 120 h): 640 ng/mL
  EC50 (ng/mL), growth inhibition of Trop2 positive MDA-MB-468 cells (CCK-8, 120 h): 158 ng/mL
  EC50 (ng/mL), growth inhibition of Trop2 positive MX-1 cells (CCK-8, 120 h): 233 ng/mL
